Results reported in US20130225488A1 (CADILA HEALTHCARE, published 2013).
Where no end group is shown, it is not given here. [ ]: non-standard residue; d: D form. αMePhe(2-F) = C[C@](N)(Cc1ccccc1F)C(=O)O

B1: Seq. ID. No. 30: H-Aib-QGT-(α-Me-2F-Phe)-TSD-Bip(OMe)-Bip(Pyr) (peptide)
peptide: HXQGTXTSDXX
modifications: Aib at 2; α-Me-2F-Phe at 6; Bip(OMe) at 10; Bip(Pyr) at 11
B2: Seq. ID. No. 29: H-Aib-QGT-(α-Me-2F-Phe)-TSD-Bip(OMe)-Bip(2Me) (peptide)
peptide: HXQGTXTSDXX
modifications: Aib at 2; α-Me-2F-Phe at 6; Bip(OMe) at 10; Bip(2Me) at 11
B3: Seq. ID. No. 31: H-Aib-QGT-(α-Me-2F-Phe)-TSD-Bip(OMe)-Bip(2F) (peptide)
peptide: HXQGTXTSDXX
modifications: Aib at 2; α-Me-2F-Phe at 6; Bip(OMe) at 10; Bip(2F) at 11
B4: Seq. ID. No. 28: HAQGT-(α-Me-2F-Phe)-TSD-Bip(OMe)-Bip(2CF3) (peptide)
peptide: HAQGT[αMePhe(2-F)]TSD[Bip(OMe)][Bip(2CF3)]
B5: Seq. ID. No. 35: H-(ACP)-QGT-(α-Me-2F-Phe)-TSD-Bip(OMe)-Bip(2F) (peptide)
peptide: HXQGTXTSDXX
modifications: not fully specified; ACP at 2; α-Me-2F-Phe at 6; Bip(OMe) at 10; Bip(2F) at 11
B6: Seq. ID. No. 5: HSQGTFTSD-Bip(OMe)-Bip(2Me) (peptide)
peptide: HSQGTFTSD[Bip(OMe)][Bip(2Me)]-NH2
B7: Seq. ID. No. 32: H-Aib-QGT-(α-Me-2F-Phe)-TSD-Bip(OMe)-Bip(2CF3) (peptide)
peptide: HXQGTXTSDXX
modifications: Aib at 2; α-Me-2F-Phe at 6; Bip(OMe) at 10; Bip(2CF3) at 11; C-terminal amide (CONH2)
B8: Seq. ID. No. 34: H-(ACP)-QGT-(α-Me-2F-Phe)-TSD-Bip(OMe)-Bip(Pyr) (peptide)
peptide: HXQGTXTSDXX
modifications: not fully specified; ACP at 2; α-Me-2F-Phe at 6; Bip(OMe) at 10; Bip(Pyr) at 11
B9: Seq. ID. No. 7: HSQGTFTSD-Bip(OMe)-Bip(2F) (peptide)
peptide: HSQGTFTSD[Bip(OMe)][Bip(2F)]
modifications: not fully specified (C-terminus); printed as HSQGTFTSD-Bip(OMe)-Bip(2F)
B10: Seq. ID. No. 33: H-(ACP)-QGT-(α-Me-2F-Phe)-TSD-Bip(OMe)-Bip(2Me) (peptide)
peptide: HXQGTXTSDXX
modifications: ACP at 2; α-Me-2F-Phe at 6; Bip(OMe) at 10; Bip(2Me) at 11
B11: Seq. ID. No. 27: HAQGT-(α-Me-2F-Phe)-TSD-Bip(OMe)-Bip(2F) (peptide)
peptide: HAQGT[αMePhe(2-F)]TSD[Bip(OMe)][Bip(2F)]
B12: Seq. ID. No. 8: HSQGTFTSD-Bip(OMe)-Bip(2CF3) (peptide)
peptide: HSQGTFTSD[Bip(OMe)][Bip(2CF3)]
modifications: not fully specified (C-terminus); printed as HSQGTFTSD-Bip(OMe)-Bip(2CF3)

Tests used:
Human GLP-1 receptor = Human GLP-1 receptor (human, UniProt P43220 24-463); assay: cell-based or functional assay
Human GLP-1 receptor, sequence (P43220 24-463): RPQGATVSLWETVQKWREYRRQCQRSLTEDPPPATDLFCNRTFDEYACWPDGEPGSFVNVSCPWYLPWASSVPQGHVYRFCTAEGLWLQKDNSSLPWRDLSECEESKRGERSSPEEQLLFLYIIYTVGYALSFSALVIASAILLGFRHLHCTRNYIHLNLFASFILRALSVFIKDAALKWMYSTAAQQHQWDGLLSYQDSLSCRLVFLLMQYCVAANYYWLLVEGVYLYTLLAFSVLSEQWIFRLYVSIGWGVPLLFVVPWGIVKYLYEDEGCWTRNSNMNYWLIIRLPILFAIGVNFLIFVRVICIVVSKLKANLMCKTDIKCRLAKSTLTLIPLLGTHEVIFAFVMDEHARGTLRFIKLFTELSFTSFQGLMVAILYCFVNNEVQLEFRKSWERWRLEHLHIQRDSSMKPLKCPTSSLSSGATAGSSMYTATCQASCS

Human glucagon receptor = Human glucagon receptor (human, UniProt P47871 26-477); assay: cell-based or functional assay

Row | Binder | cAMP release, % activity with respect to control; test compound 1 nM (Human GLP-1 receptor) | cAMP release, % activity with respect to control; test compound 10 nM (Human GLP-1 receptor) | cAMP release, % activity with respect to control; test compound 100 nM (Human GLP-1 receptor) | cAMP release, % activity with respect to control; test compound 1 µM (Human GLP-1 receptor) | cAMP release, % activity with respect to control; test compound 10 µM (Human GLP-1 receptor) | cAMP production with saturated glucagon peptide; test compound 1 nM (Human glucagon receptor) | cAMP production with saturated glucagon peptide; test compound 10 nM (Human glucagon receptor) | cAMP production with saturated glucagon peptide; test compound 100 nM (Human glucagon receptor) | cAMP production with saturated glucagon peptide; test compound 10 µM (Human glucagon receptor) | cAMP production with saturated glucagon peptide; test compound '1 nM' (Human glucagon receptor)
1 | B1 | 93% | 99% | 99% | 99% | 99% | 9 pmol/ml/µg prt | 6 pmol/ml/µg prt | 5 pmol/ml/µg prt | 0 pmol/ml/µg prt | 3 pmol/ml/µg prt
2 | B2 | 99% | 99% | 99% | 99% | 99% | 10 pmol/ml/µg prt | 8 pmol/ml/µg prt | 6 pmol/ml/µg prt | 1 pmol/ml/µg prt | 4 pmol/ml/µg prt
3 | B3 | 93% | 99% | 99% | 99% | 99% | 6 pmol/ml/µg prt | 5 pmol/ml/µg prt | 2 pmol/ml/µg prt | 0 pmol/ml/µg prt | 0 pmol/ml/µg prt
4 | B4 | 55% | 88% | 92% | 99% | 99% | 4 pmol/ml/µg prt | 3 pmol/ml/µg prt | 0 pmol/ml/µg prt | 0 pmol/ml/µg prt | 0 pmol/ml/µg prt
5 | B5 | 99% | 99% | 99% | 99% | 99% | 5 pmol/ml/µg prt | 3 pmol/ml/µg prt | 1 pmol/ml/µg prt | 0 pmol/ml/µg prt | 0 pmol/ml/µg prt
6 | B6 | 38% | 78% | 86% | 95% | 98% | 20 pmol/ml/µg prt | 18 pmol/ml/µg prt | 16 pmol/ml/µg prt | 12 pmol/ml/µg prt | 14 pmol/ml/µg prt
7 | B7 | 99% | 99% | 99% | 99% | 99% | 4 pmol/ml/µg prt | 2 pmol/ml/µg prt | 0 pmol/ml/µg prt | 0 pmol/ml/µg prt | 0 pmol/ml/µg prt
8 | B8 | 99% | 99% | 99% | 99% | 99% | 0 pmol/ml/µg prt | 0 pmol/ml/µg prt | 0 pmol/ml/µg prt | 0 pmol/ml/µg prt | 0 pmol/ml/µg prt
9 | B9 | 45% | 84% | 90% | 99% | 99% | 6 pmol/ml/µg prt | 5 pmol/ml/µg prt | 2 pmol/ml/µg prt | 0 pmol/ml/µg prt | 0 pmol/ml/µg prt
10 | B10 | 99% | 99% | 99% | 99% | 99% | 0 pmol/ml/µg prt | 0 pmol/ml/µg prt | 0 pmol/ml/µg prt | 0 pmol/ml/µg prt | 0 pmol/ml/µg prt
11 | B11 | 82% | 87% | 92% | 99% | 99% | 14 pmol/ml/µg prt | 11 pmol/ml/µg prt | 7 pmol/ml/µg prt | 0 pmol/ml/µg prt | 3 pmol/ml/µg prt
12 | B12 | 40% | 81% | 87% | 95% | 98% | 4 pmol/ml/µg prt | 2 pmol/ml/µg prt | 0 pmol/ml/µg prt | 0 pmol/ml/µg prt | 0 pmol/ml/µg prt
